Assay results: the Human Domainome abundance scans (Beltran et al. 2025)
± gives the uncertainty stated by the source.

B1: Gamma-crystallin D, residues 90 to 170; numbered along this chain, P07320 (parent)
chain: IRLYEREDYRGQMIEFTEDCSCLQDRFRFNEIHSLNVLEGSWVLYELSNYRGRQYLLMPGDYRRYQDWGATNARVGSLRRV

Variants of: B1
Test: abundance fitness (aPCA) (normalised: wild type 0, dead -1); higher = more abundant; growth selection in yeast, the domain comes from the species named
Details: Homo sapiens

Abundance fitness: each site, then its substitutions
E15: P 0.038 ± 0.11, R -0.084 ± 0.059, S -0.11 ± 0.086, T -0.027 ± 0.13, V -0.118 ± 0.076, W -0.093 ± 0.074, Y -0.135 ± 0.2
F16: A -0.1 ± 0.081, C -0.029 ± 0.12, D -0.163 ± 0.11, E -0.018 ± 0.095, G 0.035 ± 0.052, H 0.052 ± 0.31, I -0.077 ± 0.26, K -0.118 ± 0.1, L 0.08 ± 0.078, M -0.115 ± 0.15, N 0.095 ± 0.18, P 0.109 ± 0.09, Q 0.033 ± 0.13, R 0.082 ± 0.063, S 0.035 ± 0.068, T -0.089 ± 0.12, V 0.034 ± 0.071, W 0.143 ± 0.09, Y -0.606 ± 0.42
T17: A -0.177 ± 0.071, C 0.007 ± 0.14, D -0.012 ± 0.14, E -0.089 ± 0.095, F 0.08 ± 0.14, G 0.016 ± 0.064, I 0.073 ± 0.11, K -0.061 ± 0.13, L 0.001 ± 0.069, M -0.172 ± 0.16, N -0.001 ± 0.25, P 0.152 ± 0.082, Q -0.11 ± 0.11, R 0.074 ± 0.064, S -0.022 ± 0.063, V 0.005 ± 0.064, W -0.068 ± 0.099, Y 0.004 ± 0.22
E18: A -0.018 ± 0.057, C 0.05 ± 0.1, D -0.08 ± 0.15, G -0.088 ± 0.067, H 0.027 ± 0.31, I -0.074 ± 0.1, L 0.001 ± 0.072, M -0.005 ± 0.15, N 0.11 ± 0.23, P -0.584 ± 0.14, Q 0.054 ± 0.17, R 0.048 ± 0.079, S 0.04 ± 0.1, T -0.035 ± 0.088, V -0.004 ± 0.07, W -0.142 ± 0.096
D19: A -0.116 ± 0.11, C -0.065 ± 0.19, E 0.035 ± 0.13, F 0.004 ± 0.15, H -0.033 ± 0.17, I -0.249 ± 0.13, K -0.144 ± 0.18, L -0.169 ± 0.085, M -0.06 ± 0.094, N -0.058 ± 0.29, P -0.003 ± 0.091, Q 0.041 ± 0.16, R -0.129 ± 0.069, S -0.115 ± 0.11, T 0.039 ± 0.11, V -0.087 ± 0.075, W -0.108 ± 0.11, Y -0.155 ± 0.11
C20: D 0.108 ± 0.14, E 0.135 ± 0.095, G 0.052 ± 0.05, H -0.104 ± 0.19, I -0.047 ± 0.27, K -0.096 ± 0.24, L -0.01 ± 0.1, M -0.04 ± 0.13, N 0.042 ± 0.15, P -0.486 ± 0.13, R 0.069 ± 0.052, S -0.011 ± 0.088, T 0.015 ± 0.1, V -0.061 ± 0.077, W 0.056 ± 0.094, Y 0.3 ± 0.26
S21: A -0.023 ± 0.1, C -0.054 ± 0.13, D 0.044 ± 0.16, E 0.069 ± 0.12, F 0.017 ± 0.16, G -0.05 ± 0.064, H -0.088 ± 0.19, I 0.004 ± 0.27, K -0.045 ± 0.12, M -0.171 ± 0.2, N -0.183 ± 0.31, P -0.215 ± 0.14, Q -0.246 ± 0.16, R -0.03 ± 0.075, T -0.047 ± 0.12, V -0.044 ± 0.078, W -0.099 ± 0.085, Y 0.069 ± 0.28
C22: A 0.002 ± 0.1, D 0.089 ± 0.32, E 0.056 ± 0.079, F 0.113 ± 0.23, G 0.019 ± 0.053, H -0.07 ± 0.24, K -0.134 ± 0.13, L -0.049 ± 0.096, M 0.091 ± 0.18, N -0.149 ± 0.17, P -0.104 ± 0.11, Q -0.023 ± 0.12, R -0.044 ± 0.071, S 0.015 ± 0.069, V -0.08 ± 0.081, W -0.107 ± 0.086, Y -0.009 ± 0.15
L23: A 0.086 ± 0.074, C -0.023 ± 0.13, F -0.027 ± 0.15, G -0.24 ± 0.062, H -0.833 ± 0.49, I -0.098 ± 0.15, K -0.033 ± 0.23, N -0.055 ± 0.18, P -0.029 ± 0.079, Q -0.217 ± 0.11, R -0.332 ± 0.061, S 0.14 ± 0.067, T 0.004 ± 0.088, V -0.043 ± 0.082, W -0.215 ± 0.098
Q24: A -0.021 ± 0.086, C -0.025 ± 0.15, D -0.051 ± 0.17, E 0.029 ± 0.13, G 0.01 ± 0.055, H 0.08 ± 0.18, I -0.038 ± 0.17, K 0.068 ± 0.18, M 0.167 ± 0.15, N -0.022 ± 0.067, P 0.02 ± 0.13, R 0.013 ± 0.063, S -0.008 ± 0.11, T -0.08 ± 0.12, V -0.086 ± 0.062, W -0.073 ± 0.099, Y -0.045 ± 0.27
D25: A 0.005 ± 0.13, C -0.308 ± 0.16, E 0.088 ± 0.13, F -0.036 ± 0.14, G 0.041 ± 0.079, I -0.052 ± 0.19
